Source: patent US20050064514A1 (MacroGenics, published 2005)
Positions count from the first letter of the chain named. Numbers in names are those of the source.

T1: FcγRIIB-Fc fusion protein (soluble dimeric FcγRIIB) (human, UniProt P31994 43-217)
T1 construct: extracellular domain; also called FcRIIB-Fc; FcR2B; not shown: hinge-CH2-CH3 domain of human IgG2
T1 sequence (looked up): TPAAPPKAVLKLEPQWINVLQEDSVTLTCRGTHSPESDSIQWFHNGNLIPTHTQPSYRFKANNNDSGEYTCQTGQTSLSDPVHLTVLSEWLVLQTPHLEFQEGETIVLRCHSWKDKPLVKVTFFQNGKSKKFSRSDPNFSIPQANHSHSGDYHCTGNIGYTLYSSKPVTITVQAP

B1: ch4-4-20 K288N, A330S, P396L (antibody)
chain: EPKSCDKTHTCPPCPAPELLGGPSVFLFPPKPKDTLMISRTPEVTCVVVDVSHEDPEVKFNWYVDGVEVHNANTKPREEQYNSTYRVVSVLTVLHQDWLNGKEYKCKVSNKALPSPIEKTISKAKGQPREPQVYTLPPSREEMTKNQVSLTCLVKGFYPSDIAVEWESNGQPENNYKTTPLVLDSDGSFFLYSKLTVDKSRWQQGNVFSCSVMHEALHNHYTQKSLSLSPGK
B2: ch4-4-20 E293V, Q295E, A327T (antibody)
chain: B1 chain with N73K, E78V, Q80E, A112T, S115A, L181P
B3: ch4-4-20 Y319F, P352L, P396L (antibody)
chain: B1 chain with N73K, Y104F, S115A, P137L
B4: ch4-4-20 MgFc66 (A330V, G427M) (antibody)
chain 1: not shown
chain 2: DVVMTQTPLSLPVSLGDQASISCRSSQSLVHSNGNTYLRWYLQKPGQSPKVLIYKVSNRFSGVPDRFSGSGSGTDFTLKISRVEAEDLGVYFCSQSTHVPWTFGGGTKLEIKRTVAAPSVFIFPPSDEQLKSGTASVVCLLNNFYPREAKVQWKVDNALQSGNSQESVTEQDSKDSTYSLSSTLTLSKADYEKHKVYACEVTHQGLSSPVTKSFNRGEC

Key:
[1] = biological target: T1, FcγRIIB-Fc fusion protein (soluble …); assay: BIAcore
[2] = biological target: T1, FcγRIIB-Fc fusion protein (soluble …); assay: BIAcore separate fit
[3] = biological target: T1, FcγRIIB-Fc fusion protein (soluble …); assay: BIAcore ch4-4-20

Binder | koff [1] [s⁻¹] | koff [2] [s⁻¹] | Koff WT/Mut [3]
B1 | 0.05 | 0.05 | –
B2 | 0.074 | – | 1.3
B3 | 0.041 | – | 2.29
B4 | – | – | 0.62
